{"source": "paper doi:10.1101/2024.02.15.580443", "key": {"[1]": {"target": "ComM from Legionella pneumophila (C-terminal His6-tag) (Legionella pneumophila Paris) (UniProt Q5ZXZ0)", "test": "cryo-EM structure"}, "[2]": {"target": "ComM from Legionella pneumophila (C-terminal His6-tag) (Legionella pneumophila Paris) (UniProt Q5ZXZ0)", "test": "cryo-EM structure", "remark": "listed apart in the source"}, "[3]": {"target": "RadA R301A mutant from Streptococcus pneumoniae (for biochemical assays) (Streptococcus pneumoniae (R800 derivative strain)) (UniProt Q8DRP0)"}, "[4]": {"target": "RadA from Streptococcus pneumoniae (strep-tagged, for cryoEM) (Streptococcus pneumoniae) (UniProt Q8DRP0)", "test": "cryo-EM structure"}}, "note": "Read-outs that look alike come from different tables or passages of the source."}
{"substance": "ComM from Legionella pneumophila (C-terminal His6-tag) (from UniProt Q5ZXZ0 1-503) (enzyme)", "values": [{"measurement": "stoichiometry N", "setting": "[1]", "result": 12}, {"measurement": "stoichiometry N", "setting": "[2]", "result": 6}]}
{"substance": "RadA R301A mutant from Streptococcus pneumoniae (for biochemical assays) (from UniProt Q8DRP0 2-419) (enzyme)", "values": [{"measurement": "stoichiometry N", "setting": "[3]", "result": 6}]}
{"substance": "RadA from Streptococcus pneumoniae (strep-tagged, for cryoEM) (from UniProt Q8DRP0 1-420) (enzyme)", "values": [{"measurement": "stoichiometry N", "setting": "[4]", "result": 6}]}
